{"source": "patent US20240261333A1", "about": "“NOVEL TARGETS FOR ENHANCING ANTI-TUMOR IMMUNITY” (THE BROAD INSTITUTE, INC., priority 2021, published 2024)", "molecules": {"B1": {"name": "LIMA1 (protein)", "chain": "MESSPFNRRQWTSLSLRVTAKELSLVNKNKSSAIVEIFSKYQKAAEETNMEKKRSNTENLSQHFRKGTLTVLKKKWENPGLGAESHTDSLRNSSTEIRHRADHPPAEVTSHAASGAKADQEEQIHPRSRLRSPPEALVQGRYPHIKDGEDLKDHSTESKKMENCLGESRHEVEKSEISENTDASGKIEKYNVPLNRLKMMFEKGEPTQTKILRAQSRSASGRKISENSYSLDDLEIGPGQLSSSTFDSEKNESRRNLELPRLSETSIKDRMAKYQAAVSKQSSSTNYTNELKASGGEIKIHKMEQKENVPPGPEVCITHQEGEKISANENSLAVRSTPAEDDSPGDSQVKSEVQQPVHPKPLSPDSRASSLSESSPPKAMKKFQAPARETCVECQKTVYPMERLLANQQVFHISCFRCSYCNNKLSLGTYASLHGRIYCKPHFNQLFKSKGNYDEGFGHRPHKDLWASKNENEEILERPAQLANARETPHSPGVEDAPIAKVGVLAASMEAKASSQQEKEDKPAETKKLRIAWPPPTELGSSGSALEEGIKMSKPKWPPEDEISKPEVPEDVDLDLKKLRRSSSLKERSRPFTVAASFQSTSVKSPKTVSPPIRKGWSMSEQSEESVGGRVAERKQVENAKASKKNGNVGKTTWQNKESKGETGKRSKEGHSLEMENENLVENGADSDEDDNSFLKQQSPQEPKSLNWSSFVDNTFAEEFTTQNQKSQDVELWEGEVVKELSVEEQIKRNRYYDEDEDEE"}, "B2": {"name": "MTDH (protein, UniProt Q86UE4 1-582, looked up)", "Protein LYRIC": "MAARSWQDELAQQAEEGSARLREMLSVGLGFLRTELGLDLGLEPKRYPGWVILVGTGALGLLLLFLLGYGWAAACAGARKKRRSPPRKREEAAAVPAAAPDDLALLKNLRSEEQKKKNRKKLSEKPKPNGRTVEVAEGEAVRTPQSVTAKQPPEIDKKNEKSKKNKKKSKSDAKAVQNSSRHDGKEVDEGAWETKISHREKRQQRKRDKVLTDSGSLDSTIPGIENTITVTTEQLTTASFPVGSKKNKGDSHLNVQVSNFKSGKGDSTLQVSSGLNENLTVNGGGWNEKSVKLSSQISAGEEKWNSVSPASAGKRKTEPSAWSQDTGDANTNGKDWGRSWSDRSIFSGIGSTAEPVSQSTTSDYQWDVSRNQPYIDDEWSGLNGLSSADPNSDWNAPAEEWGNWVDEERASLLKSQEPIPDDQKVSDDDKEKGEGALPTGKSKKKKKKKKKQGEDNSTAQDTEELEKEIREDLPVNTSKTRPKQEKAFSLKTISTSDPAEVLVKNSQPIKTLPPATSTEPSVILSKSDSDKSSSQVPPILQETDKSKSNTKQNSVPPSQTKSETSWESPKQIKKKKKARRET"}, "B3": {"name": "TMEM59 (protein)", "chain": "EAFDSVLGDTASCHRACQLTYPLHTYPKEEELYACQRGCRLFSICQFVDDGIDLNRTKLECESACTEAYSQSDEQYACHLGCQNQLPFAELRQEQLMSLMPKMHLLFPLTLVRSFWSDMMDSAQSFITSSWTFYLQADDGKIVIFQSKPEIQYAPHLEQEPTNLRESSLSKMSYLQMRNSQAHRNFLEDGESDGFLRCLSLNSGWILTTTLVLSVMVLLWICCATVATAVEQYVPSEKLSIYGDLEFMNEQKLNRYPASSLVVVRSKTEDHEEAGPLPTKVNLAHSEI"}, "B4": {"name": "ARG1 (protein)", "chain": "MSAKSRTIGIIGAPFSKGQPRGGVEEGPTVLRKAGLLEKLKEQECDVKDYGDLPFADIPNDSPFQIVKNPRSVGKASEQLAGKVAEVKKNGRISLVLGGDHSLAIGSISGHARVHPDLGVIWVDAHTDINTPLTTTSGNLHGQPVSFLLKELKGKIPDVPGFSWVTPCISAKDIVYIGLRDVDPGEHYILKTLGIKYFSMTEVDRLGIGKVMEETLSYLLGRKKRPIHLSFDVDGLDPSFTPATGTPVVGGLTYREGLYITEEIYKTGLLSGLDIMEVNPSLGKTPEEVTRTVNTAVAITLACFGLAREGNHKPIDYLNPPK"}, "B5": {"name": "DDX20 (protein)", "chain": "MAAAFEASGALAAVATAMPAEHVAVQVPAPEPTPGPVRILRTAQDLSSPRTRTGDVLLAEPADFESLLLSRPVLEGLRAAGFERPSPVQLKAIPLGRCGLDLIVQAKSGTGKTCVFSTIALDSLVLENLSTQILILAPTREIAVQIHSVITAIGIKMEGLECHVFIGGTPLSQDKTRLKKCHIAVGSPGRIKQLIELDYLNPGSIRLFILDEADKLLEEGSFQEQINWIYSSLPASKQMLAVSATYPEFLANALTKYMRDPTFVRLNSSDPSLIGLKQYYKVVNSYPLAHKVFEEKTQHLQELFSRIPFNQALVFSNLHSRAQHLADILSSKGFPAECISGNMNQNQRLDAMAKLKHFHCRVLISTDLTSRGIDAEKVNLVVNLDVPLDWETYMHRIGRAGRFGTLGLTVTYCCRGEEENMMMRIAQKCNINLLPLPDPIPSGLMEECVDWDVEVKAAVHTYGIASVPNQPLKKQIQKIERTLQIQKAHGDHMASSRNNSVSGLSVKSKNNTKQKLPVKSHSECGIIEKATSPKELGCDRQSEEQMKNSVQTPVENSTNSQHQVKEALPVSLPQIPCLSSFKIHQPYTLTFAELVEDYEHYIKEGLEKPVEIIRHYTGPGDQTVNPQNGFVRNKVIEQRVPVLASSSQSGDSESDSDSYSSRTSSQSKGNKSYLEGSSDNQLKDSESTPVDDRISLEQPPNGSDTPNPEKYQESPGIQMKTRLKEGASQRAKQSRRNLPRRSSFRLQTEAQEDDWYDCHREIRLSFSDTYQDYEEYWRAYYRAWQEYYAAASHSYYWNAQRHPSWMAAYHMNTIYLQEMMHSNQ"}, "B6": {"name": "MTCH2 (protein, UniProt Q9Y6C9 2-303, looked up)", "Mitochondrial carrier homolog …": "ADAASQVLLGSGLTILSQPLMYVKVLIQVGYEPLPPTIGRNIFGRQVCQLPGLFSYAQHIASIDGRRGLFTGLTPRLCSGVLGTVVHGKVLQHYQESDKGEELGPGNVQKEVSSSFDHVIKETTREMIARSAATLITHPFHVITLRSMVQFIGRESKYCGLCDSIITIYREEGILGFFAGLVPRLLGDILSLWLCNSLAYLVNTYALDSGVSTMNEMKSYSQAVTGFFASMLTYPFVLVSNLMAVNNCGLAGGCPPYSPIYTSWIDCWCMLQKEGNMSRGNSLFFRKVPFGKTYCCDLKMLI"}, "B7": {"name": "NCCRP1 (protein)", "chain": "MEEVREGHALGGGMEADGPASLQELPPSPRSPSPPPSPPPLPSPPSLPSPAAPEAPELPEPAQPSEAHARQLLLEEWGPLSGGLELPQRLTWKLLLLRRPLYRNLLRSPNPEGINIYEPAPPTGPTQRPLETLGNFRGWYIRTEKLQQNQSWTVKQQCVDLLAEGLWEELLDDEQPAITVMDWFEDSRLDACVYELHVWLLAADRRTVIAQHHVAPRTSGRGPPGRWVQVSHVFRHYGPGVRFIHFLHKAKNRMEPGGLRRTRVTDSSVSVQLRE"}, "B8": {"name": "PBXIP1 (protein)", "chain": "MDPESERALQAPHSPSKTDGKELAGTMDGEGTLFQTESPQSGSILTEETEVKGTLEGDVCGVEPPGPGDTVVQGDLQETTVVTGLGPDTQDLEGQSPPQSLPSTPKAAWIREEGRCSSSDDDTDVDMEGLRRRRGREAGPPQPMVPLAVENQAGGEGAGGELGISLNMCLLGALVLLGLGVLLFSGGLSESETGPMEEVERQVLPDPEVLEAVGDRQDGLREQLQAPVPPDSVPSLQNMGLLLDKLAKENQDIRLLQAQLQAQKEELQSLMHQPKGLEEENAQLRGALQQGEAFQRALESELQQLRARLQGLEADCVRGPDGVCLSGGRGPQGDKAIREQGPREQEPELSFLKQKEQLEAEAQALRQELERQRRLLGSVQQDLERSLQDASRGDPAHAGLAELGHRLAQKLQGLENWGQDPGVSANASKAWHQKSHFQNSREWSGKEKWWDGQRDRKAEHWKHKKEESGRERKKNWGGQEDREPAGRWKEGRPRVEESGSKKEGKRQGPKEPPRKSGSFHSSGEKQKQPRWREGTKDSHDPLPSWAELLRPKYRAPQGCSGVDECARQEGLTFFGTELAPVRQQELASLLRTYLARLPWAGQLTKELPLSPAFFGEDGIFRHDRLRFRDFVDALEDSLEEVAVQQTGDDDEVDDFEDFIFSHFFGDKALKKRSGKKDKHSQSPRAAGPREGHSHSHHHHHRG"}}, "data": [{"target": "T1, B3GNT2 (Homo sapiens, UniProt Q9NY97)", "T1 construct": "The respective ORFs of candidate genes [CD274 (NM_014143), MCL1 (NM_021960), JUNB (NM_002229), and B3GNT2 (NM_006577)] were synthesized; expressed in transfected cells; host or cells: A375 melanoma cells (lentiviral ORF overexpression)", "T1 sequence (Q9NY97 1-397)": "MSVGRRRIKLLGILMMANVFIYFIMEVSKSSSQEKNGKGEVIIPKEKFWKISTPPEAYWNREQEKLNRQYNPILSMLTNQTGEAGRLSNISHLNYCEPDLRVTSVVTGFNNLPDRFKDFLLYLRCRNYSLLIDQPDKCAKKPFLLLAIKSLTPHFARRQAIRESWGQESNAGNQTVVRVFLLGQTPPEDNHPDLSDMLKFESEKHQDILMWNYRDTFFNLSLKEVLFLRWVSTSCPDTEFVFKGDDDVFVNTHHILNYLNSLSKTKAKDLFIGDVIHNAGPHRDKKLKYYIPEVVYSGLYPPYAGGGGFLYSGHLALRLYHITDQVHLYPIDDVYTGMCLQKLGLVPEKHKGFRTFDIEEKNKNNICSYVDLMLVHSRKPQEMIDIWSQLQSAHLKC", "experiment": "Co-IP of FLAG-tagged B3GNT2 followed by mass spectrometry", "format": "cell-based", "parameters": "C-term IgG / C-term flag: unit not given here", "details": "Co-IP followed by mass spectrometry of B3GNT2; C-term tag, FLAG pull-down", "procedure": "(§1) Cells were plated in 10-cm cell culture dishes and grown to 60-80% confluency. For each condition, two biological replicates were harvested for co-IP. Cells were washed with PBS and 4 mL of lysis buffer (20 mM HEPES, 1% Triton X-100, 150 mM NaCl, 1 mM EDTA, and 10% glycerol) containing protease inhibitor cocktail was added. Cells were scraped and lysate was incubated at 4° C. under rotary agitation for 1 h. Lysate was centrifuged at 14,000×g for 10 min at 4° C. Supernatant was transferred to a new tube and an aliquot was taken as the input. […] For Western blots, 10 μg/mL Chicken Anti-FLAG (Aves labs ET-DY100) and IgY control (R&D Systems AB-101-C) antibodies were biotinylated (Thermo Fisher Scientific 90407) and added to the respective conditions. Lysates with antibodies were incubated at 4° C. under rotary agitation overnight. For each mL of lysate, 50 μL of Pierce Protein A/G Magnetic Beads (Mass spectrometry; Thermo Fisher Scientific 88803) or Pierce Streptavidin Magnetic Beads (Western blot; Thermo Fisher Scientific 88817) was washed twice with lysis buffer. Lysates with antibodies were added to the beads and incubated at 4° C. under rotary agitation for 4 h. Beads were washed with lysis buffer 3 times and resuspended in lysis buffer for storage. […] This solution was subjected to solid phase extraction to concentrate the peptides and remove unwanted reagents followed by injection onto a Shimadzu HPLC with fraction collector. Eight fractions were collected and after concentration were injected on a Waters NanoAcquity HPLC equipped with a self-packed Aeris 3 μm C18 analytical column 0.075 mm by 20 cm, (Phenomenex). Peptides were eluted using standard reverse-phase gradients. The effluent from the column was analyzed using a Thermo Orbitrap Elite mass spectrometer (nanospray configuration) operated in a data dependent manner for 54 minutes. […] Scaffold Q+S (Proteome Software) was used to provide consensus reports for the identified proteins.", "values": [{"molecule": "B1", "C-term flag": 2}, {"molecule": "B2", "C-term flag": 6}, {"molecule": "B3", "C-term flag": 0}, {"molecule": "B4", "C-term flag": 6}, {"molecule": "B5", "C-term flag": 6}, {"molecule": "B6", "C-term flag": 2}, {"molecule": "B7", "C-term flag": 4}, {"molecule": "B8", "C-term flag": 4}]}, {"target": "T1, B3GNT2", "experiment": "Co-IP of FLAG-tagged B3GNT2 followed by mass spectrometry", "format": "cell-based", "parameters": "C-term IgG / C-term flag: unit not given here", "details": "Co-IP followed by mass spectrometry of B3GNT2; C-term tag, IgG pull-down", "procedure": "as §1", "values": [{"molecule": "B1", "C-term IgG": 0}, {"molecule": "B2", "C-term IgG": 0}, {"molecule": "B3", "C-term IgG": 0}, {"molecule": "B4", "C-term IgG": 4}, {"molecule": "B5", "C-term IgG": 0}, {"molecule": "B6", "C-term IgG": 0}, {"molecule": "B7", "C-term IgG": 0}, {"molecule": "B8", "C-term IgG": 0}]}, {"target": "T1, B3GNT2", "experiment": "Co-IP of FLAG-tagged B3GNT2 followed by mass spectrometry", "format": "cell-based", "parameters": "C-term IgG / C-term flag: unit not given here", "details": "Co-IP followed by mass spectrometry of B3GNT2; N-term tag, FLAG pull-down", "procedure": "as §1", "values": [{"molecule": "B1", "N-term FLAG": 4}, {"molecule": "B2", "N-term FLAG": 0}, {"molecule": "B3", "N-term FLAG": 6}, {"molecule": "B4", "N-term FLAG": 8}, {"molecule": "B5", "N-term FLAG": 0}, {"molecule": "B6", "N-term FLAG": 4}, {"molecule": "B7", "N-term FLAG": 4}, {"molecule": "B8", "N-term FLAG": 2}]}, {"target": "T1, B3GNT2", "experiment": "Co-IP of FLAG-tagged B3GNT2 followed by mass spectrometry", "format": "cell-based", "parameters": "C-term IgG / C-term flag: unit not given here", "details": "Co-IP followed by mass spectrometry of B3GNT2; N-term tag, IgG pull-down", "procedure": "as §1", "values": [{"molecule": "B1", "N-term IgG": 3}, {"molecule": "B2", "N-term IgG": 0}, {"molecule": "B3", "N-term IgG": 0}, {"molecule": "B4", "N-term IgG": 4}, {"molecule": "B5", "N-term IgG": 0}, {"molecule": "B6", "N-term IgG": 0}, {"molecule": "B7", "N-term IgG": 4}, {"molecule": "B8", "N-term IgG": 0}]}]}
